# In patent publication US20070105796A1 (published 2007):
# B1: N-terminal HA-tagged MAPKAPK3 (enzyme)
# chain: MDGETAEEQGGPVPPPVAPGGPGLGGAPGGRREPKKYAVTDDYQLSKQVLGLGVNGKVLECFHRRTGQKCALKLLYDSPKARQEVDHHWQASGGPHIVCILDVYENMHHGKRCLLIIMECMEGGELFSRIQERGDQAFTEREAAEIMRDIGTAIQFLHSHNIAHRDVKPENLLYTSKEKDAVLKLTDFGFAKETTQNALQTPCYTPYYVAPEVLGPEKYDKSCDMWSLGVIMYILLCGFPPFYSNTGQAISPGMKRRIRLGQYGFPNPEWSEVSEDAKQLIRLLLKTDPTERLTITQFMNHPWINQSMVVPQTPLHTARVLQEDKDHWDEVKEEMTSALATMRVDYDQVKIKDLKTSNNRLLNKRRKKQAGSSSASQGCNNQ
# notes: Expressed in HEK293T cells from pcDNA3.1(+); also called HA-MAPKAPK3; not shown: HA-tag at the N-terminus
# Biological target: T1, TERT (telomerase reverse transcriptase), catalytic subunit of telomerase (human, UniProt O14746 1-1132)
# T1 construct: also called human TERT
# Experiment: co-expression in HEK293T cells, immunoprecipitation with anti-HA antibody, Western blotting with anti-TERT antibody (FIG. 3)
# Description: After culturing 4×10⁵ HEK293T cells at 37° C. overnight under the atomosphere of 5% CO₂ (in a dish with 60 mm diameter), 2 μg of the expression plasmid of HA-tagged MAPKAPK3 or pcDNA3.1 (+) as a negative control was transfected together with 2 μg of TERT expression plasmid using FuGENE6 Transfection Reagent (Roche). After 2 days of culturing, cells were washed with ice-cold phosphate buffered physiologically saline (PBS (−)), collected and suspended in 500 μl of cell lysis buffer (20 mM Tris-HCl, pH7.4/150 mM NaCl/1 mM ethylenediaminetetraacetic acid (EDTA)/2.5 mM sodium pyrophsphate)/1 mM β-glycerophsphate/1 mM Na₃VO₄/protease inhibitor cocktail), and left to stand on ice for 10 minutes. Subsequently, centrifugation was conducted at 4° C. for 10 minutes at 14,000 rpm to collect the supernatant for use as a cell lysate. Then, 10 μl of agarose-conjugated normal rabbit IgG (Sigma) was added to 500 μl of the cell lysate and subjected to overturned mixing at 4° C. for 30 minutes, followed by subjecting to centrifugation to collect the supernatant. 10 μl of agarose-conjugated anti-HA antibody (Y11, SantaCruz) was added to the collected supernatant, and subjected to overturned mixing at 4° C. overnight, followed by subjecting to centrifugation to collect the agarose beads. […] Subsequently, the binding protein was detected by Western blotting using an anti-TERT antibody (L-20, SantaCruz). […]
# T1 sequence (O14746 whole entry): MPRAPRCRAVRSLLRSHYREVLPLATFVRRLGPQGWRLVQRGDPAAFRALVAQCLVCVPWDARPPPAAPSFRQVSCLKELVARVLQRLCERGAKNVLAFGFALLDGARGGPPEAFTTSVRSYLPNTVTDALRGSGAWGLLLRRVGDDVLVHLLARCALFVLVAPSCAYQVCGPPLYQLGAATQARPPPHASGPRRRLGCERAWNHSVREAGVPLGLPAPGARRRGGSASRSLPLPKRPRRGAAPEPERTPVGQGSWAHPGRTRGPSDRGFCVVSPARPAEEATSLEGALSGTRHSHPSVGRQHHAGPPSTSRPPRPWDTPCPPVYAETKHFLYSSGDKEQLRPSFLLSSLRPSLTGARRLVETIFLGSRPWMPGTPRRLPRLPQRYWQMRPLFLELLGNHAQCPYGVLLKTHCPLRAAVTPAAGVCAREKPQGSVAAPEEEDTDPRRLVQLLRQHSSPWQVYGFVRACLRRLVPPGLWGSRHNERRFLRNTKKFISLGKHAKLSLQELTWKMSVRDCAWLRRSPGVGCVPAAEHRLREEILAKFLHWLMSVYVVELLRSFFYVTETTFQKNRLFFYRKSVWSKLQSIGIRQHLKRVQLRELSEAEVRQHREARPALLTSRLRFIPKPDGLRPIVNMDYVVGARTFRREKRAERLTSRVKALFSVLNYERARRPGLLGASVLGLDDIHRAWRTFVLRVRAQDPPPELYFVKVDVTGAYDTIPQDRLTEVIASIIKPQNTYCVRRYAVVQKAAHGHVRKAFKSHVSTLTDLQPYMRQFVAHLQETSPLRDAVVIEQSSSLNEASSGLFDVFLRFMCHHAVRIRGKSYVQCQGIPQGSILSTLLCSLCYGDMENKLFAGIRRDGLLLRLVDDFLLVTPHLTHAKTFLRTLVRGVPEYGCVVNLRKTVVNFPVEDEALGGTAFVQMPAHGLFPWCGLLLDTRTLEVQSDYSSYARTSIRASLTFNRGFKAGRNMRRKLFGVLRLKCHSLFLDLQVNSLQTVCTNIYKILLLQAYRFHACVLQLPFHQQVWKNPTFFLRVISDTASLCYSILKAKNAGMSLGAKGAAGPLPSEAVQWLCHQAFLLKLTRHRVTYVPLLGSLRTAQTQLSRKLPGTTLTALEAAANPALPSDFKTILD
binder,measurement,value
B1,binding result,binds
